# Experiment: soluble on expression in E. coli; label from the status in PepcDB or PDB records
row,Sequence,soluble on expression in E. coli
1,MDPLVSFFDGMAQASWLRPVHDRLKKGTGSWANRAVLDVGCGTGRLLARGVHEAAHLAGVDLSKQMVLATEERLHEHKQCGRLTVVQGDAYDLPFADESFDVCLSTCVMFLLPEPERGMKEMIRVLNGAGVIGMLNPTNKMNHAAAKAYCKKSGITGFEEKTLLQWSNVSTRRHRYTAEQLTHFFKQHGAWVVTHELVLDGLAVVTVASWNKLEHHHHHH,not soluble
2,MDPQGYFLWYQVEMPEDRVNDLARELRIRDNVRRVMVVASTTPGRYEVNIVLNPNLDQSQLALEKEIIQRALENYGARVEKVEELGLRRLAYPIAK,soluble
3,MDPQILSPASYGNRAPQKKKKPKKPSAELPSRHSTRSDENSGKIEPGTEHMSSGQRKNLKLLKSDERARVIDARAVLDSAQKHLATLLKNGGKGGDEDIDELIFNREAEIPVEPIRKGKCPFYFDQRILTIVGRVGEVPVQHWFAIYNTSPFPYMFKIKCSDNSLFKIHPVCGVLDALCDAEISVTFVGAHVPPRYTSYLSIHSMLPDPLFLDVPQAFRNRRNFETRQRLYVEYAYHEDPILVTAEEDRDQFHFQYMRKVLKTDEAESFAKKLKAEKVERLDKKIDEIKARKIDEKLIEREIVRAESPKFEPKTRRLRVEKFFNQQKQKKENEWMEKLKVDASRKPMLSHWDLEMKNIKAEKKKIGAVKKKIKAEKKEDKKKPMGWMSTLKMERDERRTKRKEEEEKKKKDAEEKKKKDAEEKKKKDAEDEKKKDAGDEKKKDAEDEKKKDAGDEKKKKDAGEKKKKDAEEKKKVAEEEKKS,soluble
4,MDQIRQLAQWIKEANTIAVLTGAGMSTESGIPDFRSENGLYAQEDNVEYYLSEYYYKKDPVDFWRRFKRMFSLKMMGGFAPNDGHRFLRWLEEMGKTVTILTQNIDGLHTKAGSTNVIELHGTLQTATCPSCGNKYDLSFINRHEVPRCEKCQTIVKPDVVLFGGLVPRMEEAFAAAAASDLLLAMGTSLEVAPVNQIPFYVAAESPATRKVLINKTATRMDGMFDLVIYGGIGKTVASVRKQIQAE,soluble
5,MDQKRLTHLRQLEAESIHIIREVAAEFANPVMLYSIGKDSSVMLHLARKAFYPGTLPFPLLHVDTGWKFREMYAFRDRTANAYGCELLVHKNPEGVAMGINPFVHGSAKHTDIMKTEGLKQALNKYGFDAAFGGARRDEEKSRAKERIYSFRDRFHRWDPKNQRPELWRNYNGQINKGESIRVFPLSNWTEQDIWQYIWLENIDIVPLYLAAERPVLERDGMLMMVDDDRIDLQPGEVIKKRMVRFRTLGCWPLTGAVESHAQTLPEIIEEMLVSTTSERQGRMIDRDQAGSMELKKRQGYF,not soluble
6,MDQNLKEQILELKRQKNAIILAHYYQRPEVQEIADFIGDSYNLSKIAKENDADTIVFCGVKFMAESAKVLSPQKKVLLPQPKAGCPMADMADAEGLAALKAKHPNAKVVSYINSSVEVKALCDTCCTSSNAAKIVKRIDSDEIIFLPDKNLGSYVQEMVPEKNIILWDGFCKVHNMIIPTDIEEMKNKYGDMKILAHPECWKPVRDMADFIGSTGAMIDYAEKDTTSDKYLVVTETGIMYKMQERVPNKTFYPLRSMVCVNMKATHLEDVYNSLVNSTFEINIEENLRQKALTSLENMLILGRLEHHHHHH,not soluble
7,MDQSSHHHHHHMDQKQIEEIVRSVMASMGQAAPAPSEAKCATTNCAAPVTSESCALDLGSAEAKAWIGVENPHRADVLTELRRSTVARVCTGRAGPRPRTQALLRFLADHSRSKDTVLKEVPEEWVKAQGLLEVRSEISDKNLYLTRPDMGRRLCAEAVEALKAQCVANPDVQVVISDGLSTDAITVNYEEILPPLMAGLKQAGLKVGTPFFVRYGRVKIEDQIGEILGAKVVILLVGERPGLGQSESLSCYAVYSPRMATTVEADRTCISNIHQGGTPPVEAAAVIVDLAKRMLEQKASGINMTR,soluble
8,MDRDELVRYLDAYLRIQDFPQDPSLNGLQVEGKRTVRKVGAAVDAGEAIFRKALEEEVDFLIVHHGLFWGKPFPIVGHHKRRLETLFQGGINLYAAHLPLDAHEEVGNNFVLARELGLVDLTPWDVGVKGRFPQPTPLLQVADRLGQLTGMQPLVHQGGLDHVETVILVSGSGTGLLPKVDADLFVTGEPKHSVFHETFERGLNVIYAGHYDTETFGVKALAAHLEARFGLPWVFLDHPTGL,soluble
9,MDRDWGGKTGGGGVASSEQTEVSRRERLRQLALETIDLKKDPYFMRNHLGGYECKLCLTLHTNEGNYLAHTQGRRHQMNLARRAAREAKEKPQTVAPPPKIVPKKTIKIGRPGYRIIKQRDPETDQLSLLFQIQYPEIAEDVQPRHRFMSSFEQKVERPDPKYQFLLFAAEPYETIAFKIPNWEIEKSEGNYYLHWDKDNKTFTLQIYFKPRSQPPVKNQQEIPSQQASVGNLMKQQRDPFAPIAFGT,soluble
10,MDRIRNDGVFYEIAYAESLMPATRKNTLFNGRVLIRSLKSKNIIFSSGAETMLDLRSPVDVMNMSLLWGVANNEARKMISGFPKNLLLQAECRGTGNGDVCSMKLSDAEKLAGNGEEEEQDGASEEKVVVGKEEEAEKVKAPPIEVRMNHSQYQALLQATKNANDMMKKIKASKAASSS,not soluble
11,MDSIIELRHLKTLLALEETGSVSLAAKRVFLTQSALSHQIRMLENHYGTPLFERKSTPLRFTPVGERLLRLAHELIPQVAVAEWDLARITEGEAGELRIAVECHTCFDWLMPAMGEFRPMWPQVELDIVSGFQADPVGLLLQHRADLAIVSEAEKQNGISFQPLFAYEMVGICAPDHPLAAKNVWTAEDFIGETLITYPVPDEMLDLPKKILIPKNINPPRRHSELTIAIIQLVASRRGIAALPYWTVMPYLEKGYVVHRQITADGLQSKLYAAIRTEDTDKSYLNNFCQIIRERGFADLPGLSELEPV,not soluble
12,MDSRLSDFLARAESVLARLEPLLPAVREAVDWERSLAARWHRDGRSGYLQPLEVSLDLRLADLLGVERQREQLERNTRQFVAGQPANHALLWGARGTGKSSLVRALLAELAGAGLRLIEIERDHLADLPRVVEQLQGLPQRFVLFCDDLSFDAGEGDYRVLKSVLDGSLEQAPENVLLYATSNRRHLVSEKQSDNENWKMVDGELHPNEAVEDKIALSDRFGLWLSFYPFTQEHFLSVVHHWVDVLAEKAGLAWSWSEELEKEAIRWALGRGNRNGRCAYQFSRYWVGKQLLERQA,not soluble
13,MDSSNPSSLPLEKSSGNVQKGKLLNIWSRCIAQPSSFLGSSISRFWANADIKNRVCSAAIGRVNFVSKCLKKFPEVSLSCNISASLSLNTGKEKVKNEDLEKQERCHKVAMIEYEIQNLERQLKKRQF,not soluble
14,MDSSNYFYGGNNICIINTKWGKHSGIGGYAEIIDTLVGNFTNISSWAKIGIRDHIHTNFLICDFVYKDNDHIMPPGISSFEDYWVKIGNDVWVGTNVTILRGVEVGDGAVIAAGSVVTKSIPPYAIVGGNPAKFIKWRFPFEVREKLLEIKLEHHHHHH,not soluble
15,MDSTKVTLTVRGSTAFGEVIAVVGSCETLGSWCQQKAVTLQPAEEDGTLWRTTIHVPRGAETKYRYFKAFILESKNAGGPCQVIVNRWETHQLPRSLSPSEPELVVDDGHFGVHDGAECVDSGWLTCQTEIRLRLHYSVKPPVSITKKKFKTSRIRLKPMLEGVEEEEDED,soluble
16,MDTISDVQIHWRKKDYLSMSLLDDFGIAETTVKEHSVNDQIIVTLSADHRVRMIIRYEMDESHIPMIKNLVIRAFFIGSQ,soluble
17,MDTYKLILNGKTLKGETTTEAVDAATAEKVFKHYANEHGVHGHWTYDPETKTFTVTE,soluble
18,MDVIRSSASDILGALRSRQLSSEAVMEATLARIAAVNPELNAIVALRPTDELLAEARAADAVAPEARGALHGLPIAVKDLVETAGIVSSHGSPLFRDHVPERDDLIAARIRAAGAILIGKTNVPEFGLGSHTFNPVYGATGNPYAPNLTCGGSSGGAAVALATGMTALADGSDMMGSLRNPAAWCNVYGFRPSWGRVPSEPLGDTFLHQLATLGPMGRSPADIAILLDVISGADPRQPHGFDSAPVAPLRPAATRGLRLGWLGDWGGAFPTEPGILPLCETALKIFSDLGCTVEKVPPPFDAEALWESWITLRSWSVGAGLAPLSEKRAQLKDSAQWELDRGLALSAMEVDRASVTRSAWFMRATELFESYDALILPSAQVWPFDLDRPYPTEIAGQAMDTYHRWMQVVTPVSLIGLPSLAMPAGFGDAGLPMGVQIFGPRGGDAALLALGEAYHAATTWPQRHP,not soluble
19,MDVKHNPKKEVIERSLNATEKAIESIREGDLVRRHTVLELRDMQISMSEDFDQIRGMMHELDHQIDKERAENSKWMNRKMEKAKATADQALASTLMVKDVQLLEKKVNILKDSVIQVNKAFYKYEKDVDMKDLMDQVTDMVHRTEKKEQDALEPHATDEQAIEKAFRGAIEGLYGLKSSNPKVMEEAKLLAGEMRVFRDAAANKNFHSMISKVAPGKSGVSLDSSSSESSFSTSASSSLAKPNGKSSSSAASSISGSH,not soluble
20,MDVPADSHIKYEDAIDYWTDVDATVDGVLGGYGEGTVVPTMDVLGSNNFLRKLKSRMLPQENNVKYAVDIGAGIGRVSKTMLHKHAAKIDLVEPVKPFIEQMHVELAELKDKGQIGQIYEVGMQDWTPDAGKYWLIWCQWCVGHLPDAELVAFLKRCIVGLQPNGTIVVKENNTPTDTDDFDETDSSVTRSDAKFRQIFEEAGLKLIASERQRGLPRELYPVRMYALKPMPN,soluble
21,MDVTATPRPHSNTQRPTQAYYVPRKLLECGRGPQSKPTTIDKNEKPIQTSAQQKQKPRPLMDTVISAPPSSLKEKSPQSNRQTKSNKKSSPPPRKSPVMTSSYQVQYPNSPRDLHLVSSTPSSRSSSSMSSNNGIVSPTLTVSSPRIVKGGPQKYSMSRPNAFAPMIAQSDEKECICDRKNTHVVCKRCGYECVGRVQVTCGKHPLILALNDLRECPNPVCHSVQLLECDELDDQDVHDDGVEQLLAEPIEKIDLLS,not soluble
22,MDVTNDDYIRLLSALLPPGPVWSASDPAIAGAAPSLTRVHQRADALMRELDPRTTTELINRWERLCGLPDECIPAGTQTLRQRQQRLDAKVNLAGGINEDFYLAQLAALGRPDATITRYDKSTFTCSSACTDAVNAPEWRYYWQVNMPATTNSTWMTCGDPCDSALRIWGDTVVECVLNKLCPSHTYVIFKYPE,soluble
23,MDWEERENPKRLVKTFAFPNFREALDFANRVGALAERENHHPRLTVEWGRVTVEWWTHSAGGVTEKDREMARLTDALLQR,soluble
24,MDWTRRLRLQHLQLLVSLMETGNLSGTARAAHTTQPGLSKWLKELEEDVGAPLFERHARGLRPTPYGMTLFNHAQRVLTEMERARQNLEAMRSGSGSRVLLGTSPASAPSLVPRALRAFLGRYPGAQVELLEGTMNGLLERLEKRQLDVVVGRLDNYAPRASLRCEVLYSEAIVVMARPGHPLAQAAALDWEDVRRYDWIVWPPGSPIRSKLDMALTQGGRQPPAYRLESSSMLANIELLRGSDMLSIGSARVVEHLAGLGLVARLALEIPGEGAVGMCWRDEPHRDRASEDLLACLREGAAAE,not soluble
25,MDYDQQPIMYDEVELLIQAVDQQPHPLLRLRDKAIIQLGLQGGFRRSELANLKVHYLSFMRDKLKVRLPFSKSNQQGLREWKSLPDSEPFAAYHAVKSWLNESQITDGHLFRSISRDGKTLRPYHVNDNSKPKSTFSRNSGFLNGDDIYRIIKQYCLKAGLPAQYYGAHSLRSGCVTQLHENNKDILYIMARTGHTDPRSLRHYLKPKEDLEHHHHHH,not soluble
26,MDYEIENNHADSIRRGSIEVICGSMFSGKTEELLRRLRRAKIARQTVEIFKPTIDIRYDETDVVSHDKNAIASTPVDNSANILLLSSQVDVVGIDEAQFFDEGLVEVAQQLADQGVRVVIAGLDMDFRRQPFGPMPGLCAIADSVTKVHAVCVECGRLASYSFRRVQGDQQVMLGELNEYSPLCRTCYRKCSSPPQTEEIHSTILEHHHHHH,soluble
